Data on 1 molecule can be found in patent CN110577594A (UNIV NORTHWEST A&F, dated 2019).

The target in one assay is T1, 金黄色葡萄球菌表面蛋白A (Staphylococcus aureus, UniProt P38507 37-477).
T1 construct: whole, on cells; also called 葡萄球菌蛋白A; spA
As to the kind of experiment: direct ELISA on coated whole S. aureus (ATCC25923, ATCC29213, ATCC26111), HRP-conjugated nanobody. (In general: An ELISA detects its analyte on a solid surface through an enzyme-linked reagent.)

In another assay the target is T2, 金黄色葡萄球菌肠毒素B (Staphylococcus aureus, UniProt P01552 28-266).
T2 sequence: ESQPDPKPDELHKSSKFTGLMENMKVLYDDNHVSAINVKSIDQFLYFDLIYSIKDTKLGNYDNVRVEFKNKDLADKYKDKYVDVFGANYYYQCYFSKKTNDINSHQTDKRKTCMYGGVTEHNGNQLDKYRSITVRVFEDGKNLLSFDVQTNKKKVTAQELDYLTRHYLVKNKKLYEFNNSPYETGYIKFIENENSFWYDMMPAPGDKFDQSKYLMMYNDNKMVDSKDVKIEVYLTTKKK
As to the kind of experiment: direct ELISA, antigen coated, HRP-conjugated nanobody.

B1: 金黄色葡萄球菌肠毒素A纳米抗体A21 (VHH)
VHH: ESGGGSVQAGGSLRLSCAASRNTYSYCSMGWYRQAPGKERELVSSIKSDDRTVYADSVKGRFTISRGNAKNTVHLLMNSLKPEDTAMYYCTFRCLERSGGETRYWGQGTQVTVS
notes: also called Clone A21; A21克隆
As to B1, the values for the binding result with 金黄色葡萄球菌表面蛋白A and with 金黄色葡萄球菌肠毒素B were “no binding (tested: 10 7 cfu/mL)” and “no binding (tested: 500ng/mL)”, respectively.
